For six molecules, normalised SPOT signal, Boehringer light units (BLU); mean over the file's lines of this peptide results are on record in PMC314469, “Protein Interaction Networks by Proteome Peptide Scanning” (PLoS Biology, 2004).

What all share (test): SPOT array
Experiment [1] addresses T1, Rvs167 SH3 (RV167_YEAST), P39743.
T1 chain: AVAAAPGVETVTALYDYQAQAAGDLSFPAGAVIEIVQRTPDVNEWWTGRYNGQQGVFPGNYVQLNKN

Experiment [2] concerns the target T2, Yhr016c SH3 (YSC84_YEAST), P32793.
T2 chain: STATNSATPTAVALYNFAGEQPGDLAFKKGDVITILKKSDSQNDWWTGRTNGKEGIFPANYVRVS

The target of experiment [3] is T3, Boi1 SH3 (BOI1_YEAST), P38041.
T3 chain: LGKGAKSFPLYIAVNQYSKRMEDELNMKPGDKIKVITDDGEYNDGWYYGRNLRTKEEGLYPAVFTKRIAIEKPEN

Experiment [4] has as its target T4, Yfr024 SH3 (LSB3_YEAST), P43603.
T4 chain: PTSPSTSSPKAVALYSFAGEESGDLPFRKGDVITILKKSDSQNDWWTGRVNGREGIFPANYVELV

Experiment [5] concerns the target Sho1 SH3 (SHO1_YEAST), P40073.
The target of experiment [6] is T5, Myo5 SH3 (MYO5_YEAST), Q04439.
T5 chain: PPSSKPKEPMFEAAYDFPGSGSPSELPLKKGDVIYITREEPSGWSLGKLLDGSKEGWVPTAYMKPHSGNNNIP

For experiment [7], the target named is T6, Boi2 SH3 (BOI2_YEAST), P39969.
T6 chain: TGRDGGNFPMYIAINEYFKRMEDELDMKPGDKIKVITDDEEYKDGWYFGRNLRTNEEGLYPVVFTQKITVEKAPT

Chain of Sho1 SH3 (SHO1_YEAST), P40073 (P40073 295-366): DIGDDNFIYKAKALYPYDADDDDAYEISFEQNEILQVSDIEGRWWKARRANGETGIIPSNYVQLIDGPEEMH

EEQVKEKPNEPEGK [YLL021W 188-201]: the normalised SPOT signal, Boehringer light units (BLU); mean over the file's lines of this peptide amounted to 22.8 in experiment [1]; 23.2 in experiment [2]; 25.7 in experiment [3]; 0 in experiment [4]; 30.7 in experiment [5]; 134 in experiment [6]. This molecule displayed a normalised SPOT signal, Boehringer light units (BLU); mean over the file's lines of this peptide in experiment [7] of 28.7.
EDLVKKPPFIPSPT [YDR219C 208-221]: the normalised SPOT signal, Boehringer light units (BLU); mean over the file's lines of this peptide came out at 13.6 in experiment [1]; 2.1 in experiment [2]; 40.9 in experiment [3]; 0 in experiment [4]; 17.6 in experiment [5]; 756 in experiment [6]. Moreover, the normalised SPOT signal, Boehringer light units (BLU); mean over the file's lines of this peptide in experiment [7] turned out to be 17.3.
EEEAKSVPPIPADQ [YOL027C 550-563]: the normalised SPOT signal, Boehringer light units (BLU); mean over the file's lines of this peptide in experiment [1] turned out to be 42.8; in experiment [2], 56.7; in experiment [3], 114; in experiment [4], 0; in experiment [5], 10.6; in experiment [6], 29.4. Also, in experiment [7], the normalised SPOT signal, Boehringer light units (BLU); mean over the file's lines of this peptide turned out to be 4.5.
Consider EEQVKSNPNRPIYW [YGR234W 292-305], for which the normalised SPOT signal, Boehringer light units (BLU); mean over the file's lines of this peptide stood at 13.3 in experiment [1]; 30.2 in experiment [2]; 149 in experiment [3]; 140 in experiment [4]; 24.8 in experiment [5]; 110 in experiment [6]. Moreover, the normalised SPOT signal, Boehringer light units (BLU); mean over the file's lines of this peptide in experiment [7] was determined as 23.1.
Regarding EEKVKRTPPLPPVP [YOL093W 10-23], the normalised SPOT signal, Boehringer light units (BLU); mean over the file's lines of this peptide in experiment [1] stood at 125; in experiment [2], 45.9; in experiment [3], 108; in experiment [4], 99; in experiment [5] it was 48.2; in experiment [6], 587. In experiment [7], this molecule returned a normalised SPOT signal, Boehringer light units (BLU); mean over the file's lines of this peptide of 17.7.
Consider EELARVTPLTPKEY [YDL195W 1179-1192], for which the normalised SPOT signal, Boehringer light units (BLU); mean over the file's lines of this peptide in experiment [1] was 75.6; in experiment [2], 11.8; in experiment [3], 65.7; in experiment [4], 25.2; in experiment [5] it was 54.5; in experiment [6] it was 182. The same molecule gave a normalised SPOT signal, Boehringer light units (BLU); mean over the file's lines of this peptide in experiment [7] of 41.9.
